Numbering of substitutions follows the chain as printed. Blank lines part the entries; values can stand above or below the binder they belong to.
Experiments:
[1] = target: T1, human PTK7 on cells (tumor cells endogenously expressing PTK7); CHO-hPTK7, CHO-S-hPTK7 and 293T-hPTK7 … (human, UniProt Q13308 31-1070); assay: flow cytometry on H358 cells endogenously expressing PTK7
T1 construct: whole, on cells; The cell line of each value is named under assay; also called H1299; H358
T1 sequence (looked up): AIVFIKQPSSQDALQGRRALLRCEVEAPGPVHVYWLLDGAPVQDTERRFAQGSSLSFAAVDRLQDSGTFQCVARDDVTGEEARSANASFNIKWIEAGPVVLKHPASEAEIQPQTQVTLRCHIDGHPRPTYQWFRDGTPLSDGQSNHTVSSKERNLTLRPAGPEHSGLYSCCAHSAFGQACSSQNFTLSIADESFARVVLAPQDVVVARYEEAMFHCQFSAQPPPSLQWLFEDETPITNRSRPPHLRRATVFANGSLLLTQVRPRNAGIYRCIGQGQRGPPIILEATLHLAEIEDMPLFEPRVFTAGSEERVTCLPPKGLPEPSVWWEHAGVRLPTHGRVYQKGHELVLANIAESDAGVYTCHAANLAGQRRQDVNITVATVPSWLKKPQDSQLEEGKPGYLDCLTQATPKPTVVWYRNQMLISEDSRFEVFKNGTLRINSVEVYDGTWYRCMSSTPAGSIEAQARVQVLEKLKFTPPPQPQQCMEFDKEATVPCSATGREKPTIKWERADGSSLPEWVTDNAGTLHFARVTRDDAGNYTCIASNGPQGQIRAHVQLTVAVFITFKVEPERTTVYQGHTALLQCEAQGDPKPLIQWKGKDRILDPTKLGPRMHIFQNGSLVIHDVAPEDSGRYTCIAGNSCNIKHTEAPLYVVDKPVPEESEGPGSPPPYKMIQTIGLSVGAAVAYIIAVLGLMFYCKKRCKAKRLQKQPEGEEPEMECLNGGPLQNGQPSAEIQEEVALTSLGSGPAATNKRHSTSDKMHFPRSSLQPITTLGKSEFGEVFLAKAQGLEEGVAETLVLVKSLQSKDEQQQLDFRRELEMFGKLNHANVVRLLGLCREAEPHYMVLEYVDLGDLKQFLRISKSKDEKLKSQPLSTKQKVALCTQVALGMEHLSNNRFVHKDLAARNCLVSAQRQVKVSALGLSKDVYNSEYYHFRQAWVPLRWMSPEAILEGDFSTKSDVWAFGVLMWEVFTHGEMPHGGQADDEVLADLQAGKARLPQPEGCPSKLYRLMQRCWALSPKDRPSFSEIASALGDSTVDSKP

[2] = target: T2, human PTK7 protein (extracellular sequence of human PTK7 with C-terminal 6×His tag) (human, UniProt Q13308 31-704); assay: ELISA, coated human PTK7 protein 1 µg/ml
T2 construct: extracellular domain; Expressed transiently in HEK293 cells; also called human PTK7-His; human PTK7-His protein
T2 sequence: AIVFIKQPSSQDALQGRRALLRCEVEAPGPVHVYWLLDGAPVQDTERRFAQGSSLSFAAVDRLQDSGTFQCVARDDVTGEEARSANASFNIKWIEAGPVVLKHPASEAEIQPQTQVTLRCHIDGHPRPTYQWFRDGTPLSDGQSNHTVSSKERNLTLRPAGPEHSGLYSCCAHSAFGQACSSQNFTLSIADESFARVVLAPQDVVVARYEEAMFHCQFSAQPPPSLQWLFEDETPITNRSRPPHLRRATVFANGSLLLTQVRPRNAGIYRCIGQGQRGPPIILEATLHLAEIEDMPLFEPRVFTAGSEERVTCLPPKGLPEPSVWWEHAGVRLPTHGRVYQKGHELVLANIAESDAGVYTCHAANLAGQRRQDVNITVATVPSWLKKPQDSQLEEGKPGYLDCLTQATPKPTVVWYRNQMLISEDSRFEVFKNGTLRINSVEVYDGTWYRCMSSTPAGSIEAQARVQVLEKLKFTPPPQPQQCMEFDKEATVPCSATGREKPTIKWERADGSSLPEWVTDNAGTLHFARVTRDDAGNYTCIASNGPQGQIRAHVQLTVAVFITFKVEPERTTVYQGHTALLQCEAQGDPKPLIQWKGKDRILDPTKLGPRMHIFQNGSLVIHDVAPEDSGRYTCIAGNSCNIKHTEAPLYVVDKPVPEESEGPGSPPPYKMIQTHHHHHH
Method: (§1) Original data was imported into software for nonlinear curve fitting, and EC₅₀ of binding of each antibody to human PTK7 and monkey PTK7 was calculated, respectively. As shown in Table 1 and FIGS. 1A-1B, the screened antibodies could be bound to the human and monkey PTK7 proteins with affinity higher than that of the control antibody Hu24.

[3] = target: T1, human PTK7 on cells (tumor cells …); assay: flow cytometry on H1299 cells endogenously expressing PTK7
[4] = target: T3, monkey PTK7 protein (extracellular sequence of monkey PTK7 with C-terminal 6×His tag) (monkey); assay: ELISA, coated monkey PTK7 protein 1 µg/ml
T3 chain: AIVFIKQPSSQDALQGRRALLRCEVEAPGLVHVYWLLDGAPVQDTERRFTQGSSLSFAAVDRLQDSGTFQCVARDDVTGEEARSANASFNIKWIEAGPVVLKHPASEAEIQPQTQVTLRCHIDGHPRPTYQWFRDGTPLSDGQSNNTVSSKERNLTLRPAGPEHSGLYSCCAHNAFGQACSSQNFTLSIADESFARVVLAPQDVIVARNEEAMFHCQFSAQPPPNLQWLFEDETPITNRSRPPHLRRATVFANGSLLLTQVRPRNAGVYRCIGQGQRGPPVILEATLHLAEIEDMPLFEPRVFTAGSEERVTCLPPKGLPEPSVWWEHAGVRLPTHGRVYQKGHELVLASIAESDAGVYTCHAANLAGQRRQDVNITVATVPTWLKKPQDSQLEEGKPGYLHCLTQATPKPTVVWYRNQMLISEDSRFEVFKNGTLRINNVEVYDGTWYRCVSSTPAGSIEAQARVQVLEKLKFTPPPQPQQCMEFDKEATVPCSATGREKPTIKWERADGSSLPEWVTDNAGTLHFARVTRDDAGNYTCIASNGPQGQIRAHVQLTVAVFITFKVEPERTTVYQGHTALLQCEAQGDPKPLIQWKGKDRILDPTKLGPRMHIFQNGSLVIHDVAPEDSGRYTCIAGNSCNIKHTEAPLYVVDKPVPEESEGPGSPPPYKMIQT
Method: as §1

[5] = target: T1, human PTK7 on cells (tumor cells …); assay: flow cytometry on H1299 cells
From the text: (§2) A flow cytometer (Beckman, Cytoflex) was used for detecting the affinity of the anti-human PTK7 chimeric and humanized antibodies with human non-small cell lung cancer cells H1299, human lung adenocarcinoma cells H1975, human breast cancer cells T47D, human ovarian cancer cells OVCAR-3 (all purchased from NANJING COBIOER BIOSCIENCES CO., LTD) and CHO-hPTK7 overexpression cells.
(§3) The adherent cells were digested by using a pancreatin (Gibco) solution; a proper amount of cells were counted and taken, washed twice by using 1×PBS, and re-suspended in a 1% BSA solution; and then the cells were transferred into a 96-well deep plate at a density of 50 μl/well; a candidate antibody was diluted by using 1% BSA, then 50 μl of diluted antibody was added into the deep plate containing the cells, and incubated for 40 min at 4° C.; the cells were washed twice by using PBS, then 50 μl of diluted secondary antibody was added into each well, uniformly mixed, and incubated for 30 min at 4° C.; and the cells were washed twice by using PBS, then re-suspended in 400 μl of PBS, and subjected to examination by flow cytometer.

[6] = target: T2, human PTK7 protein (extracellular …); assay: ELISA, coated human PTK7-His protein 1 µg/ml
Method: The original data was imported into software for nonlinear curve fitting, and the EC₅₀ of binding of each antibody to the human PTK7 was calculated, respectively.

[7] = target: T1, human PTK7 on cells (tumor cells …); assay: flow cytometry on OVCAR-3 cells
From the text: as §2, §3

B1: 19C2 (anti-human PTK7 murine antibody) (antibody, V domains shown)
VH: QVTLKESGPGILKPSQTLSLTCSFSGFSLTTSGMGINWIRQPSGKGLEWLALIWWDDDKYYNPSLKNRLTVSKDPSRNQVFLTITSVDTTDSATYYCARSLITTAPSDYWGQGTSVTVSS
VL: DIVMTQSQKFMSTSVGDRVSITCKASQNVGTAITWYQQRPGQSPQLLIYSASNRYTGVPDRFTGSGSGTDFTLTISNLQSEDLADYFCLQYSDYPLTFGAGTNLELK
notes: Murine antibody purified from hybridoma supernatant on Protein A
EC50 [1]: 0.0583 µg/mL

B2: 57F4 (anti-human PTK7 murine antibody) (antibody, V domains shown)
VH: EVQLVESGGGLVKPGGSRKLSCAASGFTFSDYGMHWVRQAPEKGLEWVAYISSGSSALYYADTVKGRFTISRDNVKNTLFLQMTSLRSEDTAMYYCARRSYYSYFAYWGQGTLVTVSA
VL: QIVLTQSPALMAASPGEKVTITCRVSSSISSSTLHWYQQKSETSPKPWIYGTSNLASGVPVRFSGSGSGTSYSLTISSMEAEDAATYYCQQWSSFPFTFGSGTKLEIK
notes: as for B1
EC50 [2]: 0.0218 µg/mL
EC50 [3]: 0.0875 µg/mL
EC50 [4]: 0.0158 µg/mL

B3: 4E12 (anti-human PTK7 murine antibody) (antibody, V domains shown)
VH: QVQLQQSGAELMRPGVSVKISCKGSGYTFTDYAMHWVKQNHAKSLEWIGVISTYYGNVSYNQKFKGKATMTVDKSSSTAYMELARLTSEDSAIYYCARGFAYWGQGTLVTVSA
VL: DIVITQDELSNLVTSGESVSISCRSSKSLQKKDGKTYLNWFLQRPGQSPQLLIYLMSTRASGVSDRFSGSGSGTDFTLEISRVKAEDVGVYYCQQLVEYPFTFGSGTKLEIK
notes: as for B1
EC50 [1]: 0.035 µg/mL

B7: 4B12 (anti-human PTK7 murine antibody) (antibody, V domains shown)
VH: QVTLKESGPGILKPAQTLSLTCSFSGFSLSTSGMGVGWIRQPSGKGLEWLAHIWWDDDKHYNPSLKSRLTISKDASRNQVFLRISSVDTADTATYYCVRSNYGYDWFAYWGQGTLVTVSA
VL: DIKMTQSPSSMYVSLGERVTITCKASQDINTYLGWFQQKPGKSPKTLIYRANRLVDGVPSRFSGSGSGQDYSLTISSLEYEDMEIYYCLQYDEFPLTFGAGTKLEIK
notes: as for B1
EC50 [1]: 0.0441 µg/mL

B9: 8H3 (anti-human PTK7 murine antibody) (antibody, V domains shown)
VH: EVKLVESGGGLVQPGGSLSLSCAASGFTFTDYYMSWVRQPPGKALEWLALIRNKANGYTTEYSASVKGRFTISRDNSQSILYLQMNALRAEDSATYYCARDSFEVYWGQGTLVTVSA
VL: DIVLTQSHKFMSTSVGDRVNITCKASQDVGTAVAWYQQKPGQSPKLLIYWASTRHTGVPDRFTGSGSGTDFTLTIRNVQSEDLADYFCQQFSSFPFTFGGGTKLEIK
notes: as for B1
EC50 [2]: 0.0113 µg/mL
EC50 [3]: 0.21 µg/mL
EC50 [4]: 0.0168 µg/mL

More lines, now with the values ahead:

EC50 [5]: 0.355 µg/mL
EC50 [6]: 0.0258 µg/mL
B4: 64A10-CH (anti-human PTK7 chimeric antibody of 64A10) (antibody, human IgG1, kappa, V domains shown)
VH: QVQLKESGPVLVAPSQSLSITCTVSGFSLTSYGVYWVRQPPGKGPEWLGVIWTSGNTNYNSALMSRLSISKDNSKSQVFLKMNSLQTDDTAMYYCVKHDGGNYVGVMNYWGQGTSVTVSS
VL: DIQMTQSPATLSVTPGDRVSLSCRASQSISDYLHWYQQKSQESPRLLIKYASQSISGIPSRFSGSGSGSDFTLSINSVEPEDVGVYYCQNGHSFPPTFGGGTKLEIKR
notes: The label '-CH' is not defined in words

EC50 [2]: 0.0132 µg/mL
EC50 [4]: 0.00765 µg/mL
B5: 64A10 (anti-human PTK7 murine antibody) (antibody, V domains shown)
VH: B4 VH
VL: DIQMTQSPATLSVTPGDRVSLSCRASQSISDYLHWYQQKSQESPRLLIKYASQSISGIPSRFSGSGSGSDFTLSINSVEPEDVGVYYCQNGHSFPPTFGGGTKLEIK
notes: as for B1

EC50 [7]: 0.0397 µg/mL
B6: 64A10HZ05 (VH3+VL2) (anti-human PTK7 humanized antibody) (antibody, human IgG1, kappa, V domains shown)
VH: QVQLQESGPGLVKPSETLSLTCTVSGFSLTSYGVYWVRQPPGKGLEWLGVIWTSGNTNYNPSLKSRLTISKDNSKNQVSLKLSSVTAADTAVYYCVKHDGGNYVGVMNYWGQGTLVTVSS
VL: DIQMTQSPSSLSASVGDRVTITCRASQSISDYLHWYQQKPGKAPKLLIKYASQSISGVPSRFSGSGSGSDFTLTISSLQPEDFATYYCQNGHSFPPTFGGGTKVEIKR
notes: Human IgG1 heavy chain constant region and human Kappa light chain constant region

EC50 [2]: 0.0131 µg/mL
EC50 [3]: 0.245 µg/mL
EC50 [4]: 0.0187 µg/mL
B8: 101A6 (anti-human PTK7 murine antibody) (antibody, V domains shown)
VH: B9 VH with M34L, N76S, N86D, S102T, F103L, E104A, V105A, L112S, A117S
VL: B9 VL with L4M, N20S, I21F, T31S, A34I, R76S, F91Y, F94Y, F96L, G100A
notes: as for B1

EC50 [5]: 0.158 µg/mL
EC50 [6]: 0.0316 µg/mL
B10: 101A6-CH (anti-human PTK7 chimeric antibody of 101A6) (antibody, human IgG1, kappa, V domains shown)
VH: B9 VH with M34L, N76S, N86D, S102T, F103L, E104A, V105A, L112S, A117S
VL: DIVMTQSHKFMSTSVGDRVSFTCKASQDVGSAVIWYQQKPGQSPKLLIYWASTRHTGVPDRFTGSGSGTDFTLTISNVQSEDLADYFCQQYSSYPLTFGAGTKLEIKR
notes: as for B4

From patent publication US20260250420A1 (SICHUAN KELUN BIOTECH BIOPHARMACEUTICAL, published 2026)
